This passage reports Kd results from US6001988, “High affinity nucleic acid ligands to lectins” (NeXstar Pharmaceuticals, Inc.).

Where a chain is given by its changes, count along the chain named.

Data set [1] concerns the target T1, L-selectin (LS-Rg) (Homo sapiens, UniProt P14151 P14151:39-332).
T1 chain: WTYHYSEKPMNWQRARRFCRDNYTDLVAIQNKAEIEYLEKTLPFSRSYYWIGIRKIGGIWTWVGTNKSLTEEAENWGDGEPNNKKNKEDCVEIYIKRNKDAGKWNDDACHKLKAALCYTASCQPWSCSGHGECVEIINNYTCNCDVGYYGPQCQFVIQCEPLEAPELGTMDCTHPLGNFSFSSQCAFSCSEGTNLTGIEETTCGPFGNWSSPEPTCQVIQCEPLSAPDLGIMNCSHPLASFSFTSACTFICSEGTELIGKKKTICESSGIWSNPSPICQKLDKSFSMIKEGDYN
The data set can be described thus: filter; room temp; 2.0 nM at 37 C. Conditions: tags: human IgG2 Fc fusion (provided by A. Varki); label: 32P; hairpin.

Data set [2] addresses T1, L-selectin (LS-Rg). The data set can be described thus: filter; room temp; 970 pM at 37 C. Conditions: tags: human IgG2 Fc fusion (provided by A. Varki); label: 32P; hairpin.
Data set [3] has as its target T1, L-selectin (LS-Rg). The data set can be described thus: filter; room temp; 380 pM at 37 C; table prints SEQ 155, Table XII and text give 133. The following applies: tags: human IgG2 Fc fusion (provided by A. Varki); label: 32P; hairpin.
For data set [4], the target named is T1, L-selectin (LS-Rg). The data set can be described thus: filter; room temp; 1.6 nM at 37 C. The following applies: tags: human IgG2 Fc fusion (provided by A. Varki); label: 32P.
The target in data set [5] is T2, P-selectin (PS-Rg) (Homo sapiens, UniProt P16109 P16109:42-321).
T2 chain: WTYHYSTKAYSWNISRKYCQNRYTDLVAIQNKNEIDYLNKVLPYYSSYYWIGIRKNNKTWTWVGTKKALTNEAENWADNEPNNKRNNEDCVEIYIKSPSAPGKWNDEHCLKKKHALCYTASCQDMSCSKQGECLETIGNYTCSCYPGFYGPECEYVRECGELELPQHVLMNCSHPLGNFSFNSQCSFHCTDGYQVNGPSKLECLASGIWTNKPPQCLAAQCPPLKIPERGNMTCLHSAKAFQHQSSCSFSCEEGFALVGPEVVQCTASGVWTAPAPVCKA
The data set can be described thus: filter; room temp, Ca/Mg buffer. Conditions: tags: lectin, EGF and first two CRD domains fused to human IgG1 Fc (provided by A. Varki); chain copies: 2 (dimeric Fc chimera, inferred).

Data set [6] concerns the target T3, E-selectin (ES-Rg) (Homo sapiens, UniProt P16581 P16581:22-556).
T3 chain: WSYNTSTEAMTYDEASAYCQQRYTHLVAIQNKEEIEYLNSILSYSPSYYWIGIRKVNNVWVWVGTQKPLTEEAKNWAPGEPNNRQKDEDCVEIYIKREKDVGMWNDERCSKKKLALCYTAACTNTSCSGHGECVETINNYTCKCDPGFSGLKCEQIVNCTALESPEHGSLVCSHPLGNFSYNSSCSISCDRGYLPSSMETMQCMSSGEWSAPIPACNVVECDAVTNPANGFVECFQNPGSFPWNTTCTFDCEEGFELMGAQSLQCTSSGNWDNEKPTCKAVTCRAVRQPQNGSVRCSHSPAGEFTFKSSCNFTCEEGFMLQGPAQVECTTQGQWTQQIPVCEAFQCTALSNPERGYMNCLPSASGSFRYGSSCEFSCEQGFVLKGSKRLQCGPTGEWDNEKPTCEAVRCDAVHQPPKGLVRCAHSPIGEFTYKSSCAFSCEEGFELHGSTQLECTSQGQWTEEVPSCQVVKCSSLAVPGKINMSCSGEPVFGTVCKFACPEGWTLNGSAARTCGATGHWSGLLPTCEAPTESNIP
The data set can be described thus: filter; room temp, Ca/Mg buffer. The following applies: tags: extracellular domain fused to human IgG1 Fc (provided by A. Varki); chain copies: 2 (dimeric Fc chimera, inferred).

Data set [7] addresses T1, L-selectin (LS-Rg). The data set can be described thus: filter; room temp; 3.4 nM at 37 C. Conditions: tags: human IgG2 Fc fusion (provided by A. Varki); label: 32P.
Data set [8] has as its target T1, L-selectin (LS-Rg). The data set can be described thus: filter; room temp; 8.5 nM at 37 C. Conditions: tags: human IgG2 Fc fusion (provided by A. Varki); label: 32P; hairpin.
For data set [9], the target named is T1, L-selectin (LS-Rg). The data set can be described thus: filter; room temp; 260 pM at 37 C. Conditions: tags: human IgG2 Fc fusion (provided by A. Varki); label: 32P; hairpin.
In data set [10] the target is T1, L-selectin (LS-Rg). The data set can be described thus: filter; room temp; 3.7 nM at 37 C. Conditions: tags: human IgG2 Fc fusion (provided by A. Varki); label: 32P; hairpin.
Data set [11] concerns the target T1, L-selectin (LS-Rg). The data set can be described thus: filter; room temp; 1.0 nM at 37 C. Conditions: tags: human IgG2 Fc fusion (provided by A. Varki); label: 32P; hairpin.
Data set [12] addresses T1, L-selectin (LS-Rg). The data set can be described thus: filter; room temp; 370 pM at 37 C. Conditions: tags: human IgG2 Fc fusion (provided by A. Varki); label: 32P.
The target in data set [13] is T1, L-selectin (LS-Rg). The data set can be described thus: filter; room temp; 1.2 nM at 37 C; Table XIV prints 110 nM. Conditions: tags: human IgG2 Fc fusion (provided by A. Varki); label: 32P; hairpin.

B1: 182 (ssDNA)
DNA: CTACCTACGATCTGACTAGCTAGTGCTCCACGTATTCAAGGTGCTAAACGAAGACGGCCTGCTTACTCTCATGTAGTTCC
The molecule B1 came in with a Kd in [1] of 0.13 nM.

B2: 193 (ssDNA)
DNA: CTACCTACGATCTGACTAGCCCAGGAGCACAGTACAAGGTGTTAAACGTAATGTCTGGTGCTTACTCTCATGTAGTTCC
Turning to B2, in data set [2], the equilibrium dissociation constant (Kd) is 0.088 nM.

B3: 208 (ssDNA)
DNA: CTACCTACGATCTGACTAGCCACGTTTCAAGGGGTTACACGAAACGATTCACTCCTTGGCGCTTACTCTCATGTAGTTCC
B3 displayed a Kd in data set [3] of 0.11 nM.

B4: 239 (ssDNA)
DNA: CTACCTACGATCTGACTAGCCCACAGACAATCGCAGTCCCCGTGTAGCTCTGGGTGTCTGCTTACTCTCATGTAGTTCC
The molecule B4 showed a Kd in data set [4] of 0.17 nM. This lies in the sub-nanomolar range.

B5: 196 (ssDNA)
DNA: CTACCTACGATCTGACTAGCTGGCGGTACGGGCCGTGCACCCACTTACCTGGGAAGTGAGCTTACTCTCATGTAGTTCC
As for B5, the Kd is 3400 nM in data set [5], 50 nM in data set [6] and 0.13 nM in data set [7].

B6: 108 (ssDNA)
DNA: CTACCTACGATCTGACTAGCGAGTAGCCAAGGCGTTAGACGGAGGGGGAATGTGAGCACAGCTTACTCTCATGTAGTTCC
For B6, in [8], the affinity, expressed as Kd, was 0.16 nM.

B7: 230 (ssDNA)
DNA: CTACCTACGATCTGACTAGCTGCACACCTGAGGGTTACAAGGCGCTAGACGTAACCTCTCGCTTACTCTCATGTAGTTCC
Turning to B7, the Kd was 600 nM in data set [5], 19 nM in [6] and 0.057 nM in data set [9].

B8: 204 (ssDNA)
DNA: B7 DNA with T21G, C23A, C28G, G34T, G44A, A47C, C55A, T57A, C60T
For the molecule B8, the results for the Kd in [5], in [6] and in data set [10] were 2900 nM, 1500 nM and 0.1 nM, respectively.

B9: 183 (ssDNA)
DNA: CTACCTACGATCTGACTAGCGGCATCCCTGAGTCATTACAAGGTTCTTAACGTAATGTACGCTTACTCTCATGTAGTTCC
Take B9: in [11], binding was characterised by a dissociation constant (Kd) of 0.17 nM.

B10: 174 (ssDNA)
DNA: CTACCTACGATCTGACTAGCCATTCACCATGGCCCCTTCCTACGTATGTTCTGCGGGTGGCTTACTCTCATGTAGTTCC
Regarding B10, the values for the Kd in data set [5], in data set [6] and in data set [12] were 380 nM, 28 nM and 0.043 nM, respectively.

B11: 201 (ssDNA)
DNA: CTACCTACGATCTGACTAGCCAAGGTAACCAGTACAAGGTGCTAAACGTAATGGCTTCGGCTTACTCTCATGTAGTTCC
For the molecule B11, the figures for the dissociation constant (Kd) in data set [5], in data set [6] and in data set [13] were 1000 nM, 37 nM and 0.11 nM, respectively.
